For the test, the target named is T1, soluble human TLR3 extracellular domain (human, UniProt O15455 24-704).
T1 construct: extracellular domain; Coated on the ELISA plate; also called hTLR3; extracellular domain of human TLR3
Put plainly: ELISA, soluble human TLR3 extracellular domain coated on plate, antibody titrated, anti-mouse IgG-HRP detection. The procedure:
All 16 mAbs were assessed for binding to the extracellular domain of human TLR3 using an ELISA format as compared to the parental murine mAb C1068. Briefly, soluble human TLR3 extracellular domain was coated into the wells of a 96 well plate and candidate mAbs were incubated at various concentrations (10-3 to 103 ng/ml) and bound antibody was detected with rabbit anti-mouse IgG-HRP for murine IgG1 isotypes (Zymed, South San Francisco, Calif.) or HRP-labeled anti-human IgG (Jackson 109-036-088) for human IgG4 isotypes. $EC50$ values were determined and the screening results are shown in FIG. 9 and Table 2 below.

By EC50 is commonly meant the concentration giving half of the maximal effect. A high value points to a less potent agent.

B1: murine anti-TLR3 mAb C1068 (antibody, V domains shown)
VH: QVQLQQPGAELVQPGTSVRLSCKASGYIFTTYWIHWVKQRPGQGLEWIGEINPNNGRINYNEKFKTKATLTVDKSSSTAYMQLSSLTSEDSAVYYCTRVGVMITTFPYWGQGTLVTVSA
VL: DIQMTQSPASLSASVGETVTITCRASGNIHNYLAWYQQKQGKSPQLLVYNAKTLADGVPSRFSGSESGTQYSLKINSLQPEDFGSYYCQHFWSTPFTFGSGTKLELK
notes: The ELISA text implies a murine IgG1 isotype (detected with anti-mouse IgG-HRP for murine IgG1 isotypes); also called parental murine mAb C1068
B1 yielded an EC50 of 8 ng/mL.

The values above are taken from US8093068 (Janssen / Centocor, dated 2012).
